Experimental data as given in a protein production outcome set (Wang et al. 2014).

Assay: label from the status in PepcDB records

| Sequence | protein production |
| --- | --- |
| MNVEGMATGGIHMELHCPKCQHVLDQDNGHARCPSCGEFIEMKALCPDCHQPLQVLKACGAVDYFCQHGHGLISKKRVEFVLALEHHHHHH | failed |
| MNVKKNIALPAIMVGTFILEGVISLQFGNGLFNDKHLFIPHFLLVMLTIMTCFYKRNTTLVYAFILGLLFDIYYTGVMGIYFAIFPFTVYITDKFMKVLQNNIFLVGLITVFNIILTESLVYAFYYLIGSTTMTIPVFIDQRLWTTILFNLAFFLVIFFPFRLFLDRLVKSE | failed |
| MNVLALDTSQRIRIGLRKGEDLFEISYTGEKKHAEILPVVVKKLLDELDLKVKDLDVVGVGIGPGGLTGLRVGIATVVGLVSPYDIPVAPLNSFEMTAKSCPADGVVLVARRARKGYHYCAVYLKDKGLNPLKEPSVVSDEELEEITKEFSPKIVLKDDLLISPAVLVEESERLFREKKTIHYYEIEPLYLQKSIAELNWEKKKRG | not failed |
| MNVLLVSVNREHAPYPVFPLGLACLAGPLRAAGHRLSVLDLCFAADPEEATRQALAEFSPDVVVLSLRNIDNVTYPGSRSYLSGVRDVVAICRERAAVVVGGSGFSLMPREVLAYLGADYGVVGEGEDVLPRLLARIAAGEGGDGLPGVVARENAGFLPPHPVQAIGTPLRGLFQVERYHREGGMANIQTKRGCPFSCIYCTYPLLEGERMRLRPVADIIAEIGDLVDVHGVSYLYFVDDIFNYPLEFALELCRAMSAARLPVAWSAFINPDFLPPQLLDAMLAAGCDALEFGTDSGSPVMLRNLRKSFGIEKVREASRLCREAGVDFAHYILFGGPGETPATIAESFALMDEVAPTAVIAMTGIRIFPGTAIYRQALADGLITPETDLLRPAFYIAPTIADTLCELVREEALKRTNWVVPGLEITANDAMLEALRHFAGPGPLWKMLKLLGRRRGSVPSPWSHSPS | failed |
| MNVPDMILYNGKITTLDPSQPEVSAIAITDGLITAVGGDELLNSATEKTKKIDLKRKRAIPGLEHHHHHH | not failed |
| MNVRNNTKLITINALLLAIGVILHQITPILGLPMQPDFALTMLFIIIILNDNFKITMVSGTLMGIFTAMTTKFPGGQLPNVVDKIFTALIVFLFIALIKKSNILGRLSVEKRNNILIAIVLPLGTLVSGILFLGTAKIIVGLPASFSILFLTVVVPSIALNTVIGLVLYRIVEKSLRRASYSIRG | failed |
| MNVTTTRFGEIAVEEAKIITLPDGMLGFSEKRFVLLTPQNITPFCWLQSVENPELAFVVVDTKECASDYAVKLTAEESEKLCVNDGDEVVLLAVVTMASDPFNITVNLQGPIALNPKRMLAKQIVLEGSRYTTKHPFFDQAARSKAPGKRNASGEVTAA | not failed |
| MNVWQVVGYKHSGKTTLMEKWVAAAVREGWRVGTVKHHGHGGEPARPEGVDSVRHERAGAVATAVEGDGLLQLHLRRPLWRLDDVLALYAPLRLDLVLVEGYKQERHPKVVLVRSEEDWASLQHLANIRAVIAWEPLEGPLAHPVFSLADDDEYIPWLMNEVRTRT | not failed |
| MNWAKFRETGSPEDTDMSSTPISSDTTAVSKVIDPNYVLMVADFFKAISPDESCNDFTSFDSFSVLFQNNTRALSIARGRVSCSVTVTPGISNFFKGLHGGAVASIAERVAMACVKTVVSEDKHLFIGELSMSYLSSAPISSELLVEGTVVRTGRNLSVVTVEFKIKETMKVTYLSRATFYHSPISKL | failed |
| MNWVTHKPTFEFDNFSPFIRANTAWLGHLEFAYDLVRFEKPEILVELGTHMGASFFSFCQGVKDGGLATKCFAVDTWTGDGHTGPYGEGVFHIVDKVVKTSYPNIGNLIKSTFDEAVDQFQDGTINLLHIDGYHTYEAVSHDYKTWLPKLADNGIVLFHDIEVKDRNFGVYKFWDEVKAKYPHFQFQHSYGLGVLFPKGCSDRFKEILKNKEEIQDMYKLEHHHHHH | not failed |
| MNYFATVARGLETLAAQELEQLGAHSVEPGFCGVAFEGDRTLLYRVNLWARLPFRILVDIHEFPCLDAKDLYRGIQTIDWQNYLTPDMTLAVNVTGKNAHLNHSHFTSLQVKNAIVDQQQEKLGERSNVELHEPDVRVNVHIERDFCTVKLDSSGNSLHRRGYRPAVGSAPLKESLAAALIQLSGWKQDQMFYDPLCGSGTLPLEASLKALNIAPGLFRESFGFENWLDFDLVLLEKLLQEAKDSQLDTLPAPIWGSDHDENVIEQAINNAQNCGVDNHVWFSQMELADVVAPADSGILLCNPPYGERLGRDSDLGAFYKLLGDVLKQRFKGWTAFVLSGNKELSQSIGLKSSKRIAVYNGALPCQLMKYELY | failed |
| MNYNSIPTEIIDTILAELKIGLTLVNNTGKIIYFNQLAGELLGWDNKLPENTILSCHKKENQPKVIEKLNQPAAMEWHKVIKTQNRFIENAYSPINIPDKFMGAMILTKDVTAREESLEKLKKNAETDALTGLYNRNLFHTVIQSYITESKPYGLIMLDISGLKYINDHFGHEEGDRILKEAAEAIRSSIRDTDFAFRFGGDEFLILTSYQEAVLKTIANRIRSKNKIPTENTPAVLNLSLGYATSLEEKNMEAVLSSADQRMYRDKQLFYLGDGKYFKQ | failed |
| MNYSKLKSIPIYFSLLAISVSNVGCVQQDVEANLTSKTLSENLDSKALRHKNKEQDIESLLAQLTLEEKISLVHANTKFANAAVERLGIHSMEMSDGPHGVRRQISRDSWKPAGWDDDQATYLPPLTAVAASWDPQMATLHGNVLGSEARHRNKDVILGPGVNLARLPLYGRNFEYLGEDPFLAAKLVVPEIIAIQANDVAATVKHFALNTQELNRHGVDATPDERTLREVYLPAFEAAVKEGNTYAMMGSYNNVYGTNANQNKHLIMDILKGEWGYQGLLMTDWDVDINTYDAAMNGLDLEMGTRAKSYDDYFLAKPLLKMIQSGKVPVAVLDDKVRRILRVQLSIGMMDKQRFSGQRNTQEHRDFSRQIATQGVVLLKNESVASANHTNTVLPLDKNKVKNILVLGPNADKKHGSGGGSSQVKSLWEITPLQGLKDKLGDNVEIQFMRARSQSGVQPIAEDFVKTNNRGTGTPAWRLIEYKTKDRNKKAAHYGWLPESSYNSPLGDVIQHINLKADIMPLASGEHVLKLGGKGNVNLVINGKEVINTTLSGDKTYQHKLTLKQGKKYVFTLGYDGADNVVLGWNAPGSPFSTKDEYLAAAKNADAVIYYAGLSHADDRESKDRSNMVLPNNQDDIISDLIAVNSTTVVFVIGGSAVEMPWAEQANAIVWGWYGGMEAGHSYADILFGDVNPSGKMPITLPKKLTDTAPIVLNDYNEKTSTYPEGVFIGYRWFEQQNIEPLFPFGHGLSYTHFSFGDISLNKDVISAGETITASVKITNTGKVAGAEVVQLYLHDEESSVPRPVKELKGFEKVFLQPGESQTVMLTLTQRDLSFWDVNTKNWLAEQGQFSVHIGSSVNDIKTSTSFSYQ | failed |
| MNYVKYHLLALLVTLLVAGSFISSEKLSGVVNPFSLTLLRFVIAAFTLLPFVLFKAQYRKGIIRALPRSLIMSVFFSVFFICMFEALKTTTPLNTGTLYTLVPFLTAIFSIFAFKEKITKKRLVVYLIGSAGTSWIIFGGDIEALLAFSLNGGDALFIGGCISMVCYSISMKFLYRGDEIIVIVFCTLFCGALWMLLALLVFNQPLQWHLLKSDLWFHMGYLALFATLASTFIIQKTTVVLGPSKVMAYIYLNPICVAFLMLFIEGKSIPSIVFPGMIISLIATIVLQFQNRNNANK | failed |
| MPAETNEYLSRFVEYMTGERKSRYTIKEYRFLVDQFLSFMNKKPDEITPMDIERYKNFLAVKKR | failed |
| MPAFSTRHLGAVAAALALTVASPAATASAAPDAPAGLREVMFVGNNWDGTADVIRSTGDFARIGRIDVVPDKAERMAEINADPIKWIYFQAIRNGVGEGHDQLVDDMYSTPDGTSVVVSRPSFADVVSVDLATGDINWRFPVSGYRSDHMAVSPDGTRVAVSASTSNTVHVLDIRTGEQVGSFGTGDKPHENIFTRDGRYIWNMSIGDVNTALDAPWLDWTKGDRRITVVDAKTYRQVKVIDMRQRLDAIGLGDHSDAVRPAVFSPDESKLYFQVSFFNGFFEYDVAGDRITRTKTLPKNPATSEDRTTWVNDSRHHGLSMSPDGARICVAGTMDDYATVVNRDTLEEGPLVPAAKPYWATVSGDGTHCVVSESGADQVTAIDFATGEKSVSVPVGDHPQRVRIGRVAADWTGPSAG | failed |
| MPAGCESNPRLVGHPFMTTILAIAVFGAVGCVARYLLAGGVYALAGRAFPWGTLAVNVIGAFLIGLIMEAALRTTLMSQELRLGLTIGFLGGFTTFSTFSYETFKLLEDGEFFSASLNVLASVALCLVGTWAGIMAARQL | failed |
| MPAIFTHEGKVEGVPGNYPLTAENLFRIGLALCTLWILDKEIEEPTLSIPETNFVTLALSVGFMNAGGSVNVGKGGDIKLFLQKGEIYVLEFQPLSETDIKKLESILFGRAPIPKKTGEDIGSFKC | not failed |
| MPAKPIDLGPMHFEKKEDAVAYLHKMLHRYDLGDKVSDDDAIILRAALAHHRDAEVKVGCGITYFSVRTADFGTRCFWLNRNDGTTEKFSHKTCIYSTLEHHHHHH | not failed |
| MPAKQPTPKQEPATKAGRCLARSFMKTLIKDCSVSAIVAGSIATTISYAGPLVIIFHAAEAAGLSHQQLSSWVWAVSMGSALLGALLSLRYRVPVVIAWSIPGSALLVTALPQLGLEQAVGAYLVANLVLLLIGISGAFDRIIARLPGSIAAGMQAGILFSFGIEVFRALPVQPLLVLAMFVTYVLMRRVQPRYAVAAVLGVGMLVTVASGTLRSEALVLELASPQWITPQFSLSAVFSLALPMVLVALTGQFMPGMAVLRNAGYPTPASPLISASALIGVLLAPFGCHGLNLAAVTASLCTGHEAHENPQRRYVAAVAGSVLYLLLGIAGATLMSLFAAFPAVLIAALAGLALYGAISEALVRSLAEPAERDAGLFTFLVTASGVAFLGLSAAFWGLLFGLLAHALLRLRQPRAREVLRRTP | not failed |
| MPALCSTVQTLEKLAKDDVSSLALLGRSVMHDNALTSRILRVANSAIYHKGSTQISTVSRAAIVLGFDAVRNICITAQLLSSLLESKNLAPSVYQRLIKLMAKAFQAAMLTRMMLSDYDDDIQEEAFIACLLFHIGESAFWSIGGEFTETLDSQLTECETSADERSLIRETIGTSFSQLTQSIARHWGLGELLIQAVNYPDDPRPEIRSIFLADKLCDTLSVATPDKNDLEKYINQAANFTGLDETEFTLKMQRCTKATHKLAEAYGAKVLIDYLPDPQRIDKLEPYLPEAELPIFEANLNVQLVKLRELTAFAINKADFNQIMQTVLEGILEGVGVDRCGVLLLSPSRKQLQPRIMLGRDAEEMKRQFIIELGDRKGLFPMAMEHKESLWVDSPCAKKWQEQCRELKVQLPESGFLVAPLLVDNKVIGFYYADRGPSERCFAEVDFQAFIHFSQLANVCFTVSLK | failed |
| MPALDLIRPSVTAMRVIASVNADFARELKLPPHIRSLGLISADSDDVTYIAADEATKQAMVEVVYGRSLYAGAAHGPSPTAGEVLIMLGGPNPAEVRAGLDAMIAHIENGAAFQWANDAQDTAFLAHVVSRTGSYLSSTAGITLGDPMAYLVAPPLEATYGIDAALKSADVQLATYVPPPSETNYSAAFLTGSQAACKAACNAFTDAVLEIARNPIQRA | failed |
